The text below walks through data of patent US20210355194A1 (TWIST BIOSCIENCE, published 2021).

Read-outs that look alike come from different tables or passages of the source.

A word on the IC50: it is the concentration needed to halve the response being measured. Read a low IC50 as higher potency. Broadly, the Kd is the equilibrium constant for the complex coming apart. Lower therefore signals tighter binding.

The target of test [1] is SARS-CoV-2 S1 (subunit 1) protein (SARS-CoV-2, UniProt P0DTC2 16-685). Put plainly: phage ELISA. For orientation: In an ELISA, binding on a coated surface is turned into a signal by an enzyme label.
Test [2] has as its target T1, COVID S1 RBD Fc fusion (Antigen 1) (SARS-CoV-2, UniProt P0DTC2 319-541).
T1 construct: domain: S1 RBD
Put plainly: phage ELISA.

Test [3] deals with T2, S1-Fc (SARS-CoV-2, UniProt P0DTC2 14-685).
T2 construct: also called S1 Fc fusion protein
Put plainly: phage ELISA.

In test [4] the target is T3, COVID S1 RBM Fc fusion (Antigen 2) (SARS-CoV-2, UniProt P0DTC2 437-508).
T3 construct: domain: S1 RBM
Put plainly: phage ELISA.

The target of test [5] is T4, SARS-COV2-S1 RBD (mouse IgG2Fc tag) (SARS-CoV-2, UniProt P0DTC2 319-537). Put plainly: FACS, blocks S1 RBD-mFc binding to ACE2 on Vero E6.
Test [6] has as its target T4, SARS-COV2-S1 RBD (mouse IgG2Fc tag). Put plainly: FACS, blocks S1 RBD-mFc binding to ACE2 on Vero E6. This is another data set of the same source. A general note: A flow cytometer gives signals particle by particle.
Test [7] shares this target. Put plainly: column not explained; likely FACS, S1 RBD on Vero E6.
The target of test [8] is T5, Acro SARS-CoV-2 (COVID-19) S1 protein (SARS-CoV-2, UniProt P0DTC2 16-685).
T5 construct: also called SARS-CoV-2 S1
Put plainly: SPR. A general note: Surface plasmon resonance follows binding to a sensor surface in real time, without labels.

In test [9] the target is T6, SARS-CoV-2 S1 protein (SARS-CoV-2, UniProt P0DTC2 16-685).
T6 construct: also called SARS-CoV-2 Spike Glycoprotein S1; S1 (subunit 1)
In words: phage ELISA screen on S1, mean.

The target of test [10] is T6, SARS-CoV-2 S1 protein. Put plainly: phage ELISA screen on S1, mean. This is another data set of the same source.

B1: variant 2-2 (antibody, V domains shown)
VH: EVQLLESGGGLVQPGGSLRLSCAASGFTFSRHAMNWVRQAPGKGLEWVSGISGSGDETYYADSVKGRFTISRDNSKNTLYLQMNSLRAEDTAVYYCARDLPASYYDSSGYYWHNGMDVWGQGTLVTVSS
VL: DIQMTQSPSSLSASVGDRVTITCRASQTINTYLNWYQQKPGKAPKLLIYSASTLQSGVPSRFSGSGSGTDFTLTISSLQPEDFATYYCQQSYSTFTFGQGTKVEIK
Regarding B1, the “screening ELISA (Avg), fold over background” value (“screening ELISA (Avg), fold” below) in [1] turned out to be 23.4 fold over background. Moreover, the results for the “specificity ELISA, fold over background” value in [2], in test [3] and in [4] were 39.6 fold over background, 4.7 fold over background and 1.1 fold over background, respectively. Also, the “specificity ELISA, percent binding relative to Acro S1” value in [2] is 100%; in [3] it was 12%; in [4], 2.8%.

B2: variant 2-2 (antibody, V domains shown)
VH: EVQLLESGGGLVQPGGSLRLSCAASGFTFSRHAMNWVRQAPGKGLEWVSGISGSGDETYYADSVKGRFTISRDNSKNTLYLQMNSLRAEDTAVYYCARDLPASYYDSSGYYWHNGMDVWGQGTLVTVSS
VL: DIQMTQSPSSLSASVGDRVTITCRASQTINTYLNWYQQKPGKAPKLLIYSASTLQSGVPSRFSGSGSGTDFTLTISSLQPEDFATYYCQQSYSTFTFGQGTKVEIK
B2: the IC50 in test [5] and in [6] was 0.56 nM in each case.

B3: variant 5-34 (Fc fusion)
VHH: EVQLVESGGGLVQPGGSLRLSCAASGRTFSRYIMGWFRQAPGKEREFVAAISWSGGDNTYYADSVKGRFTISADNSKNTAYLQMNSLKPEDTAVYYCAAYRIVVGGTSPGDWRWGQGTLVTVSS
Take B3: in [5], the 50% inhibitory concentration (IC50) amounted to 1.21 nM. Further, in [7], the “MFI Fold Decrease” value was 5.69 fold.

B4: variant 5-20 (Fc fusion)
VHH: EVQLVESGGGLVQPGGSLRLSCAASGRTIVPYTMGWFRQAPGKERELVAAISPSAFTEYADSVKGRFTISADNSKNTAYLQMNSLKPEDTAVYYCAARRWGYDWGQGTLVTVSS
With B4, the affinity in [8], expressed as Kd, was 14.3 nM. The IC50 in test [5] is 1.23 nM. Moreover, in test [7], the “MFI Fold Decrease” value turned out to be 12.4 fold.

B5: variant 2-4 (antibody, V domains shown)
VH: EVQLLESGGGLVQPGGSLRLSCAASGFTFSDFAMAWVRQAPGKGLEWVSAISGSGDITYYADSVKGRFTISRDNSKNTLYLQMNSLRAEDTAVYYCAREADGLHSPWHFDLWGQGTLVTVSS
VL: DIQMTQSPSSLSASVGDRVTITCRASQSIDTYLNWYQQKPGKAPKLLIYAASALASGVPSRFSGSGSGTDFTLTISSLQPEDFATYYCQQSYSAPPYTFGQGTKVEIK
Turning to B5, the “screening ELISA (Avg), fold” value in test [1] stood at 15.5 fold over background. The entries for the “specificity ELISA, fold over background” value in test [2], in test [3] and in [4] were 38.8 fold over background, 7.2 fold over background and 1.2 fold over background, respectively. Further, the entries for the “specificity ELISA, percent binding relative to Acro S1” value in test [2], in [3] and in [4] were 103%, 19% and 3.1%, respectively.

B6: variant 2-8 (antibody, V domains shown)
VH: EVQLLESGGGLVQPGGSLRLSCAASGFTFSDFAMAWVRQAPGKGLEWVSAISGSGDITYYADSVKGRFTISRDNSKNTLYLQMNSLRAEDTAVYYCAREADGLHSPWHFDLWGQGTLVTVSS
VL: DIQMTQSPSSLSASVGDRVTITCRASQSIDTYLNWYQQKPGKAPKLLIYAASALASGVPSRFSGSGSGTDFTLTISSLQPEDFATYYCQQSYSAPPYTFGQGTKVEIK
On to B6, for which, in test [1], the “screening ELISA (Avg), fold” value came to 32.4 fold over background. Further, the “specificity ELISA, fold over background” value in test [2] came to 36.5 fold over background; in [3], 5.4 fold over background; in test [4], 1.1 fold over background. In addition, the “specificity ELISA, percent binding relative to Acro S1” value in test [2] was found to be 102%; in [3], 15%; in test [4] it was 3.1%.

B7: variant 2-5 (antibody, V domains shown)
VH: EVQLLESGGGLVQPGGSLRLSCAASGFTFSDFAMAWVRQAPGKGLEWVSAISGSGDITYYADSVKGRFTISRDNSKNTLYLQMNSLRAEDTAVYYCAREADGLHSPWHFDLWGQGTLVTVSS
VL: DIQMTQSPSSLSASVGDRVTITCRASQSIHTYLNWYQQKPGKAPKLLIYAASALASGVPSRFSGSGSGTDFTLTISSLQPEDFATYYCQQSYSAPPYTFGQGTKVEIK
For the molecule B7, the IC50 in test [5] and in [6] was 2.15 nM each time.

B8: variant 2-12 (antibody, V domains shown)
VH: EVQLLESGGGLVQPGGSLRLSCAASGFTFSDYPMNWVRQAPGKGLEWVSTISGSGGITFYADSVKGRFTISRDNSKNTLYLQMNSLRAEDTAVYYCVRHDEYSFDYWGQGTLVTVSS
VL: DIQMTQSPSSLSASVGDRVTITCRASQSIDNYLNWYQQKPGKAPKLLIYGVSALQSGVPSRFSGSGSGTDFTLTISSLQPEDFATYYCQQSHSAPPYFFGQGTKVEIK
For the molecule B8, the “screening ELISA (Avg), fold” value in [1] was determined as 18.2 fold over background. The “specificity ELISA, fold over background” value in [2] turned out to be 40.3 fold over background; in test [3] it was 14.7 fold over background; in [4], 1.1 fold over background. In addition, the results for the “specificity ELISA, percent binding relative to Acro S1” value in test [2], in [3] and in [4] were 101%, 37% and 2.9%, respectively.

B9: variant 2-13 (antibody, V domains shown)
VH: EVQLLESGGGLVQPGGSLRLSCAASGFTFSDYPMNWVRQAPGKGLEWVSAISGSGDNTYYADSVKGRFTISRDNSKNTLYLQMNSLRAEDTAVYYCVRHDEYSFDYWGQGTLVTVSS
VL: DIQMTQSPSSLSASVGDRVTITCRASQSIDTYLNWYQQKPGKAPKLLIYGASALESGVPSRFSGSGSGTDFTLTISSLQPEDFATYYCQQSHSAPPYFFGQGTKVEIK
B9: in test [1], the “screening ELISA (Avg), fold” value turned out to be 19.1 fold over background. Also, the “specificity ELISA, fold over background” value came to 32.1 fold over background in test [2], 3.7 fold over background in test [3] and 0.9 fold over background in test [4]. For the same molecule, the “specificity ELISA, percent binding relative to Acro S1” value in [2] was 118%; in test [3] it was 13.4%; in [4], 3.1%.

B10: variant 2-5 (antibody, V domains shown)
VH: EVQLLESGGGLVQPGGSLRLSCAASGFTFSDFAMAWVRQAPGKGLEWVSAISGSGDITYYADSVKGRFTISRDNSKNTLYLQMNSLRAEDTAVYYCAREADGLHSPWHFDLWGQGTLVTVSS
VL: DIQMTQSPSSLSASVGDRVTITCRASQSIHTYLNWYQQKPGKAPKLLIYAASALASGVPSRFSGSGSGTDFTLTISSLQPEDFATYYCQQSYSAPPYTFGQGTKVEIK
For B10, the “screening ELISA (Avg), fold” value in [1] was determined as 30.8 fold over background. In addition, the “specificity ELISA, fold over background” value in [2] stood at 35.9 fold over background; in [3], 24.3 fold over background; in test [4], 1.1 fold over background. For the same molecule, the “specificity ELISA, percent binding relative to Acro S1” value worked out at 93.7% in [2], 63.3% in test [3] and 3% in [4].

B11: 2-18 (antibody, V domains shown)
VH: EVQLLESGGGLVQPGGSLRLSCAASGFTFSSYAMYWVRQAPGKGLEWVSAISGSAGSTYYADSVKGRFTISRDNSKNTLYLQMNSLRAEDTAVYYCARDTNDFWSGYSIFDPWGQGTLVTVSS
VL: DIQMTQSPSSLSASVGDRVTITCTGTSSDIGSYNLVSWYQQKPGKAPKLLIYEGTKRPSGVPSRFSGSGSGTDFTLTISSLQPEDFATYYCCSYAGSRTYVFGQGTKVEIK
notes: also called variant 2-18
Regarding B11, the “ELISA(Avg)” value in [9] and in [10] was 43 fold over background throughout.

B12: variant 5-37 (Fc fusion)
VHH: EVQLVESGGGLVQPGGSLRLSCAASGSTFSINAMGWFRQAPGKEREFVGGISRSGATTNYADSVKGRFTISADNSKNTAYLQMNSLKPEDTAVYYCAADGVPEYSDYASGPVWGQGTLVTVSS
In test [8], B12 had a Kd of 30.2 nM. The molecule also gave a 50% inhibitory concentration (IC50) in test [5] of 1.01 nM. Besides, in test [7], the “MFI Fold Decrease” value stood at 8.19 fold.

B13: 2-19 (antibody, V domains shown)
VH: EVQLLESGGGLVQPGGSLRLSCAASGFTFSSYTMSWVRQAPGKGLEWVSVISGSGGSTYYADSVKGRFTISRDNSKNTLYLQMNSLRAEDTAVYYCAREGYRDYLWYFDLWGQGTLVTVSS
VL: DIQMTQSPSSLSASVGDRVTITCTGTSTDVGSYNLVSWYQQKPGKAPKLLIYEGTKRPSGVPSRFSGSGSGTDFTLTISSLQPEDFATYYCCSYAGSYTSVVFGQGTKVEIK
notes: also called variant 2-19
Turning to B13, the “ELISA(Avg)” value in test [9] and in [10] was 21.7 fold over background each time.

B14: variant 5-1 (Fc fusion)
VHH: EVQLVESGGGLVQPGGSLRLSCAASGGTFSSIGMGWFRQAPGKEREFVAAISWDGGATAYADSVKGRFTISADNSKNTAYLQMNSLKPEDTAVYYCAKEDVGKPFDWGQGTLVTVSS
With B14, the Kd in test [8] is 15.1 nM. Also, the IC50 in [5] is 0.75 nM. Moreover, the “MFI Fold Decrease” value in test [7] came to 10 fold.
